Measurements: patent US20030077290A1

Target: serum IgE from grass pollen allergic patients (171 sera)
Assay: ELISA competition; sera preabsorbed with rPhl p 6, IgE binding to rPhl p 5

B1: recombinant Phl p 6 (protein)
chain: GKATTEEQKLIEDINASFRAAMATTANVPPADKYKTFEAAFTVSSKRNLADAVSKAPQLVPKLDEVYNAAYNAADHAAPEDKYEAFVLHFSEALHIIAGTPEVHAVKPGA
**Q.** For B1, which percent of Phl p 5-specific IgE preabsorbed is on record?
**A.** < 20%
